The values below come from patent publication US20170052184A1 (published 2017).

T1: HCV Core1-169 (hepatitis C virus (HCV-1), UniProt P26664 1-169)
T1 sequence: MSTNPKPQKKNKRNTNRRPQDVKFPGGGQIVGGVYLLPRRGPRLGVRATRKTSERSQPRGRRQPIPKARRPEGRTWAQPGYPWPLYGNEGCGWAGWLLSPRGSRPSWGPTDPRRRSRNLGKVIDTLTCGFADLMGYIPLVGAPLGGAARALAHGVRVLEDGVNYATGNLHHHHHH

B1: HCV 208A-1064 (antibody, V domains shown)
VH: EVQLQQSGPELVKPGASVKISCKTSGYTFTEYAMHWMKQSHGKSLEWIGGINPTNGDTIYNQKFKDKAKLTVDRSSSTAYMELRSLTSDDSALFYCARRELDYFASWGQGTTLTVSS
VL: DIVLTQSPASLIVSLGQTATISCRASQSVSTSRFSYLHWIQQKPGQPPKLLIKYASNLESGVPVRFSGSGSGTDFTLNIHPVEEEDTATYFCQHSWEFPFTFGSGTKLKIKR
B2: HCV 208B-560 (antibody, V domains shown)
VH: EVQLQQSGPELEKPGASVKISCKTSGYTFTEYAMHWVKQSHGMSLEWIGGINPSNGNAIYNQIFKDKATLTVDRSSSTAYMGLRSLTFGDSGVYFCVRRQLDFFDYWGQGASLTVSS
VL: B1 VL with L4V, I12A, T18R, F34Y, I40Y, V64A, E83G, F91Y, K109E
B3: HCV 208A-920 (antibody, V domains shown)
VH: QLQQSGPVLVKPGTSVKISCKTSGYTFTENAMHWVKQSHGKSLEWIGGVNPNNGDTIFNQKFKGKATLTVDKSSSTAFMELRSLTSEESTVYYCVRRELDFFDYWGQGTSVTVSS
VL: B1 VL with I12A, T18R, F34Y, L37M, I40Y, V64A, E83A, T89A, F91Y, K109E
B4: HCV 208B-251 (antibody, V domains shown)
VH: QLQQSGPVLVKPGASVKISCKTSGYTFTENAMHWVKQSHGKSLEWIGGVNPNNGDTIYNQKFKGKATLTVDKSSSTAFMELRSLTSEESPVYFCVRRELDFFDYWGQGTSVTVSS
VL: DIVLTQSPASLAVSLGKKATISCRASQSVSTSRYSYMHWYQQKPGHPPKLLIKYASNLESGVPARFSGSGSGTDFTLNIHPVAEEDTAAYYCQHSWEFPFTFGSGTKLEIKR
B5: HCV 208A-110 (antibody, V domains shown)
VH: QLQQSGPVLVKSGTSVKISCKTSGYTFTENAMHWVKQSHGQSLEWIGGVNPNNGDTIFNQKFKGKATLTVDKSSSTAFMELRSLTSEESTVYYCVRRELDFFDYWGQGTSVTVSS
VL: B4 VL with K17Q, K18R, H46Q
B6: HCV 208A-222 (antibody, V domains shown)
VH: B2 VH with K19R, M43K, S54N, F103Y
VL: B4 VL with L4V, K17Q, K18R, M37L, H46Q, A83G, A89T
B7: HCV 208A-605 (antibody, V domains shown)
VH: B2 VH with M34I
VL: B4 VL with L4V, K17Q, K18R, M37L, H46Q, A83G, A89T
B8: HCV 208A-741 (antibody, V domains shown)
VH: B4 VH with K17M, Y58F, P90T, F93Y
VL: B4 VL with K17Q, K18R, A19T, R24G, Y34F, H46Q
B9: HCV 208B-556 (antibody, V domains shown)
VH: B4 VH with K17M, Y58F, L81F, P90T, F93Y
VL: B4 VL with K17Q, K18R, H46Q, A89T
B10: HCV 208A-334 (antibody, V domains shown)
VH: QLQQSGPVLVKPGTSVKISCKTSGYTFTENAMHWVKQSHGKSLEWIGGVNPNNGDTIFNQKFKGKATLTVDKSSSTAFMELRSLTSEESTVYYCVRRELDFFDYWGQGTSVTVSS
VL: B4 VL with K17Q, K18R, H46Q, E97G
B11: HCV 208A-159 (antibody, V domains shown)
VH: B4 VH with V8A, L9Q, K17M, Y58F, G64D, T67A, P90T, F93Y
VL: B4 VL with K17Q, K18R, M37V, H46Q, S56A, T87A
B12: HCV 208B-1094 (antibody, V domains shown)
VH: B1 VH with K63R
VL: B1 VL with V29L, L37V
B13: HCV 208A-133 (antibody, V domains shown)
VH: B4 VH with K11G, K17M, K36E, Y58F, L81F, P90T, F93Y
VL: B4 VL with K17Q, K18R, H46Q, A89T
B14: HCV 208A-293 (antibody, V domains shown)
VH: B1 VH with T24A, Y27F, T58A, A105P
VL: B1 VL with T18R, L37V, T76I, K109E
B15: HCV 208A-134 (antibody, V domains shown)
VH: QGQMQQSGAELAKPGASVKLSCKTSGFTFSSSYISWLKQKPGQSLEWIAWIYAGTGNTNYNQKFTDKAQLTVDTSSSTAYMQLSSLTTEDSAIYYCAISGTGFTYWGQGTLVTVSA
VL: EVLMTQSPLSLPVSLGDQASISCRSSQSLEHTNGNTYLEWFLQRPGQPPKLLIYKVSSRFSGVPDRFSGSGSGTDFTLKISRVEAEDLGVYYCFQGSHVPFTFGSGTKLAIKR
B16: HCV 208A-207 (antibody, V domains shown)
VH: QGQLQQPGAEFVKPGASLKLSCRASGYTFTSYWIHWVKQRPGQGLEWIGEIDPSDSYINQNQKFRGKATLTVDKSSSTAYMELSGLTSEDSAVYYCARHYYGVLDSWGQGTTLTVSS
VL: DIVLTQSPATLSVTPGDRVSLSCRASQRIYNYLHWYQQKSHESPRLLTKYASQSISGIPSRFSGSGSGTDFILTINSVETEDFGMYFCQQSNSWPLTFGAGTKLELRR

Numbering of substitutions follows the chain as printed.

For one assay, the target named is T1, HCV Core1-169. The experiment in a line: SPR sandwich, capture mAb C11-7.
For the molecule B1, the expected percent binding amounted to 19.6%.

Consider B2, for which the expected percent binding was determined as 15.5%.

B3: the expected percent binding came out at 22.9%.

Regarding B4, the expected percent binding was found to be 20.1%.

In turn, B5 yielded an expected percent binding of 21.1%.

For B6, the expected percent binding is 18.8%.

In the case of B7, the expected percent binding was determined as 19.3%.

In turn, B8 had an expected percent binding of 22.7%.

As to B9, the expected percent binding stood at 15.3%.

In turn, B10 came in with an expected percent binding of 20.6%.

In the case of B11, the expected percent binding stood at 7%.

The molecule B12 registered an expected percent binding of 28.4%.

B13 showed an expected percent binding of 13.9%.

B14 yielded an expected percent binding of 20.9%.

As to B15, the expected percent binding is not above 1%.

In turn, B16 had an expected percent binding not above 1%.

For another assay, the target named is T1, HCV Core1-169. The experiment in a line: SPR sandwich, capture mAb C11-14.
Turning to B1, the expected percent binding was found to be 16.3%.

As to B2, the expected percent binding is 12%.

B3 had an expected percent binding of 19.1%.

B4 gave an expected percent binding of 18.2%.

For the molecule B5, the expected percent binding came to 14.8%.

Molecule B6 gave an expected percent binding of 15%.

With B7, the expected percent binding is 15.8%.

B8 displayed an expected percent binding of 21.2%.

In turn, B9 came in with an expected percent binding of 12.7%.

In turn, B10 gave an expected percent binding of 15.9%.

B11 came in with an expected percent binding of 5.5%.

Take B12: the expected percent binding is 27.8%.

For the molecule B13, the expected percent binding was 9.3%.

For the molecule B14, the expected percent binding is 16.4%.

The molecule B15 returned an expected percent binding not above 1%.

The molecule B16 showed an expected percent binding not above 1%.

In a further assay the target is T1, HCV Core1-169. The experiment in a line: SPR sandwich, capture mAb C11-3.
B1 registered an expected percent binding of 16.3%.

As for B2, the expected percent binding is 10.6%.

Consider B3, for which the expected percent binding is 19.3%.

For B4, the expected percent binding is 16.6%.

The molecule B5 yielded an expected percent binding of 15.7%.

Take B6: the expected percent binding is 15.6%.

B7 gave an expected percent binding of 15.9%.

B8 returned an expected percent binding of 19.4%.

In turn, B9 displayed an expected percent binding of 11.5%.

In the case of B10, the expected percent binding was 17.2%.

Molecule B11 showed an expected percent binding of 4.6%.

Regarding B12, the expected percent binding stood at 24.4%.

B13: the expected percent binding was 9.8%.

Consider B14, for which the expected percent binding was found to be 17.9%.

B15 returned an expected percent binding not above 1%.

The molecule B16 gave an expected percent binding not above 1%.

The target in another assay is T1, HCV Core1-169. The experiment in a line: SPR sandwich, capture mAb C11-9.
As for B1, the expected percent binding stood at 10.5%.

Turning to B2, the expected percent binding turned out to be 8.3%.

B3: the expected percent binding worked out at 13.2%.

Molecule B4 returned an expected percent binding of 12.3%.

Consider B5, for which the expected percent binding was 9.4%.

As for B6, the expected percent binding is 10.7%.

As to B7, the expected percent binding worked out at 11.9%.

B8: the expected percent binding was determined as 14.2%.

B9 had an expected percent binding of 8.3%.

Molecule B10 yielded an expected percent binding of 10.3%.

The molecule B11 yielded an expected percent binding of 3.3%.

On to B12, for which the expected percent binding turned out to be 19.8%.

The molecule B13 showed an expected percent binding of 5.8%.

B14 displayed an expected percent binding of 11%.

In the case of B15, the expected percent binding was not above 1%.

On to B16, for which the expected percent binding was not above 1%.

In a further assay the target is T2, HCV Core 134-171-TT Peptide (hepatitis C virus (HCV-1 numbering) …).
T2 construct: also called ALRZ-9 peptide
The experiment in a line: SPR, captured mAb, peptide analyte. A general note: In SPR one partner is held on a chip, and binding of the other changes the refractive index at the surface.
A word on the Kd: it is the free concentration of one partner at which half of the binding sites on the other are occupied at equilibrium, for simple one-to-one binding. Low readings indicate tighter binding, high ones weaker binding. Broadly, the koff is a measure of how fast the partners let go of each other. Low values mean a long-lived complex, high ones a short-lived complex. A word on the kon: it is a measure of how fast the partners come together. A high value points to fast association. In turn, B1 came in with a Kd of 210 pM, a koff of 0.00034 s⁻¹ and a kon of 1.6e+06 M⁻¹ s⁻¹.

For B2, the dissociation constant Kd was 230 pM, the koff was 0.00026 s⁻¹ and the kon was 1.1e+06 M⁻¹ s⁻¹.

B3 had an equilibrium dissociation constant (Kd) of 390 pM, an off-rate constant (koff) of 0.00056 s⁻¹ and a kon of 1.5e+06 M⁻¹ s⁻¹.

Molecule B4 showed a Kd of 580 pM, a koff of 0.00065 s⁻¹ and a kon of 1.1e+06 M⁻¹ s⁻¹.

In turn, B5 came in with a Kd of 330 pM, a koff of 0.00055 s⁻¹ and a kon of 1.7e+06 M⁻¹ s⁻¹.

B6 displayed a Kd of 310 pM, a koff of 0.00035 s⁻¹ and a kon of 1.1e+06 M⁻¹ s⁻¹.

On to B7, for which the Kd worked out at 430 pM, the koff was determined as 0.00037 s⁻¹ and the kon came out at 870000 M⁻¹ s⁻¹.

On to B8, for which the Kd is 410 pM, the koff stood at 0.00069 s⁻¹ and the association rate constant (kon) was found to be 1.7e+06 M⁻¹ s⁻¹.

B9 gave a Kd of 400 pM, a koff of 0.0006 s⁻¹ and a kon of 1.5e+06 M⁻¹ s⁻¹.

In turn, B10 showed a Kd of 340 pM, an off-rate (koff) of 0.00057 s⁻¹ and a kon of 1.7e+06 M⁻¹ s⁻¹.

B11 registered a Kd of 450 pM, a koff of 0.00065 s⁻¹ and a kon of 1.4e+06 M⁻¹ s⁻¹.

In turn, B12 registered a Kd of 160 pM, a koff of 0.00025 s⁻¹ and a kon of 1.5e+06 M⁻¹ s⁻¹.

B13 yielded an equilibrium dissociation constant (Kd) of 410 pM, a koff of 0.0005 s⁻¹ and a kon of 1.2e+06 M⁻¹ s⁻¹.

In the case of B14, the Kd was 110 pM, the koff is 0.00023 s⁻¹ and the kon came to 2.1e+06 M⁻¹ s⁻¹.

For B15, the Kd is 2100 pM, the koff was 3.8e-05 s⁻¹ and the kon worked out at 18000 M⁻¹ s⁻¹.

B16 came in with a Kd of less than 32 pM, a koff of less than 1e-05 s⁻¹ and a kon of 310000 M⁻¹ s⁻¹.
